{"source": "patent US20240324599A1", "about": "“PESTICIDAL ENZYMES FOR USE ON NEMATODES, INSECTS, AND MOLLUSKS” (priority 2023, published 2024)", "key": {"[1]": {"test_system": "Diamondback moth (Plutella xylostella)", "assay": "Diet-surface overlay (DSO) bioassay", "assay_type": "in vivo", "protocol": "Diet-surface overlay bioassays are conducted with artificial diet mixes without antibiotics in 1.5 cm^2 cell bioassay trays(s). Artificial diets are commercially available from Southland Products Inc. Diets were prepared by dispersing 0.5 mL of molten diet to each 1.5 cm^2 cell. After solidification, 0.1 mL enzyme treatments were dispersed on top of diet in each cell and the tray was gently rocked in an orbital shaker to spread the liquid uniformly over the diet surface. Trays were placed under clean airflow until the surface of each cell was uniformly dried. One or two 16-cell sections were used per treatment (the number in larvae treated was 16 or 32).\nOne healthy first instar larva was placed into each treatment cell, each 16-cell section was covered with a re-sealable lid and incubated at 27° C. and light-dark period of 16:8 hrs. After 7 days, and according to the species, the number of individuals in the following developmental categories was recorded.\nDiamondback moth (Plutella xylostella): Dead Larva (lack of movement), Larva Stage I (≤50% relative size), Larva Stage II (100% relative size, full size), Early Pupa (light green color), Late Pupa (light-dark brown color), and Adult.\nNegative/untreated controls were treated with filtered water and positive controls were treated with lethal doses of Bacillus thuringiensis subsp. Kurstaki (Btk) spores at 1000 ppm."}, "[2]": {"test_system": "soybean cyst nematode (SCN, Heterodera glycines)", "assay": "Controlled environment soybean seed treatment trial: SCN cysts on roots", "assay_type": "in vivo", "details": "for % Comparison to Control: base control = 100%"}, "Steinernema feltiae": {"test_system": "Steinernema feltiae", "assay": "In-vitro plate assay: Steinernema feltiae juvenile death after direct treatment", "assay_type": "in vivo", "details": "40 μL per well (ILEVO 20 μL)", "protocol": "To determine the effects of enzymes on an additional soil-dwelling nematode species (Steinernema feltiae), a NemAttack™ package containing approximately 5 million S. feltiae juveniles was purchased from ARBICO Organics. The nematodes arrived already hatched and dispersed within a powder. To prepare the nematodes for use, an aliquot of the dry nematode mixture was rehydrated in water. The liquid nematode mixture was adjusted to a concentration of 20-30 nematode juveniles per 10 μL. The free enzymes Esterase B (SEQ ID NO: 89) and Chitinase 19F (SEQ ID NO: 182) were produced as described in Example 2.\nPotato dextrose agar media containing chloramphenicol and chlortetracycline was prepared and added to sterile twenty-four-well cell culture plates (1 mL per well). The plates were divided according to the pre-determined N-value for each treatment (N=12-24). […]\nTo quantify the treatments' effects on nematode viability, the nematodes were examined under a dissecting microscope at 20× magnification. Initial (T0) values for the number of live juveniles, number of dead juveniles and total number of juveniles were recorded immediately after preparation of each well. […] Approximately 20-22 hours post addition of juveniles, the plates were evaluated, and the number of live juveniles, dead juveniles and total number of juveniles were recorded. […]"}, "[3]": {"test_system": "Btk resistant Diamondback moth", "assay": "Diet-surface overlay (DSO) bioassay", "assay_type": "in vivo", "details": "Table 47, Btk resistant", "method_in_brief": "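Enzyme treatments (0.1 mL) were applied over the surface of antibiotic-free artificial diet, with one first-instar larva per cell and 16 or 32 larvae per treatment. After 7 days at 27° C under a 16:8 light-dark cycle, larvae were scored as dead, larval stage, pupa or adult. Water served as the negative control and 1000 ppm Btk spores as the positive control.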"}, "SCN nematodes": {"test_system": "SCN nematodes", "assay": "Foliar spray on strawberry leaf segments: nematode death", "assay_type": "in vivo, Heterodera glycines", "details": "Table 40, 0.6% spray solution on strawberry leaf segments", "protocol": "To determine whether a nematicidal enzyme can cause nematode death when sprayed as a foliar treatment, a trial was performed using chitinase 19F (SEQ ID NO: 182). The free enzyme was produced as described in Example 2. A SCN hatchery was set up as described in Example 2, except that no bleach sterilization step was performed. Six days later, the concentration of hatched nematodes was determined. Leaves from Quinault strawberry plants (Fragaria× ananassa) were cut into square sections and placed in the wells of a 24-well plate with the abaxial side up. Twenty-four wells were set up for each treatment. Spray solutions were created with water alone and water plus fermentation broth with chitinase 19F (SEQ ID NO: 182). For the base strain control and chitinase solutions, 0.094 mL of fermentation broth was added to 15 mL of water (0.6% solution) to model a field spray application of 8 fl oz. per acre. Treatments were added to a small spray bottle and each leaf segment was sprayed approximately 3 times. After the leaves had dried, approximately 100 nematodes were added to each leaf segment. […] The number of alive and dead nematodes were counted for each well, and the average percentage of dead nematodes were calculated for each treatment. […]"}, "[4]": {"details": "Table 49, esterases, number of individuals, n = 32"}, "[5]": {"details": "Table 11, free enzyme seed treatment 2 fl oz/unit, soybean P18A98X, ILEVO 0.15 mg AI/seed, 3 weeks after inoculation, base control 71.4"}}}
{"molecule": "Bacillus subtilis Esterase (EstB without signal sequence) (protein, listed as Bacillus subtilis, Esterase (EstB H191 without signal sequence)) ESVHNPVVLVHGISGASYNFFAIKNYLISQGWQSNKLYAIDFYDKTGNNLNNGPQLASYVDRVLKETGAKKVDIVAHSMGGANTLYYIKYLGGGNKIQNVVTLGGANGLVSSTALPGTDPNQKILYTSIYSLNDQIVINSLSRLQGARNIQLYGIGHIGLLSNSQVNGYIKEGLNGGGLNTN", "values": [{"measurement": "Adult", "setting": "[1]; [4]", "result": 0}, {"measurement": "Early Pupa", "setting": "[1]; [4]", "result": 4}, {"measurement": "Larva Stage I", "setting": "[1]; [4]", "result": 3}, {"measurement": "Larva Stage II", "setting": "[1]; [4]", "result": 8}, {"measurement": "Late Pupa", "setting": "[1]; [4]", "result": 17}, {"measurement": "Dead Larva", "setting": "[1]; Table 49, esterases, number of individuals, n = 32, dose per treatment in U/mL Diet", "result": 0}, {"measurement": "individuals at larva stage", "setting": "[1]; text to Table 49", "result": 34, "unit": "%"}, {"measurement": "individuals with delayed larva-pupa development", "setting": "[1]; text to Table 49", "result": 47, "unit": "%"}, {"measurement": "% Comparison to Control", "setting": "[2]; Table 11", "result": 27, "unit": "%"}, {"measurement": "Average cysts per g of root tissue", "setting": "[2]; [5]", "result": "19.6 cysts per g of root tissue"}, {"measurement": "Average cysts per g of root tissue", "setting": "[2]; Table 15, seed treated with whole cell broth, base control 59.8", "result": "56.3 cysts per g of root tissue"}, {"measurement": "% Comparison to Control", "setting": "[2]; Table 15, whole cell broth", "result": 94, "unit": "%"}, {"measurement": "% Comparison to Control", "setting": "[2]; Table 25", "result": 80, "unit": "%"}, {"measurement": "Average cysts per g of root tissue", "setting": "[2]; Table 25, soybean 3230E3, dried (PVP) formulation 0.04 units/seed, liquid 2 fl oz/unit, base control 289.9", "result": "233.2 cysts per g of root tissue"}, {"measurement": "Difference in Percent Death of Nematodes for 0 to 20 Hours", "setting": "Steinernema feltiae; Table 23, water control 3%", "result": 33, "unit": "%"}]}
{"molecule": "Streptomyces coelicolor Chitinase F (Chi19F) (protein, Chitinase F (Chi19F); Streptomyces coelicolor) ASCSSYHAWSADANYNTGDIVRYTDGKAYIAEHANPGYDPLISTWYWDPYACDGGSQTPVGNFVVSEAQFNQMFPGRNSFYTYSGLTAALSAYPGFANTGSDTTKKQEAAAFLANVSHETGGLVYIVEQNTANYPHYCDWNQPYGCPAGQAAYYGRGPIQLSWNFNYKAAGDALGIDLLGNPWLVQNDAAVAWKTGLWYWNTQSGPGTMTPHNAMVNGAGFGQTIRSINGSLECDGKNPAQVQSRVTKYQQFAQILGVSPGGNLYC", "values": [{"measurement": "Dead Larva", "setting": "[3]; individuals of n = 32 after 7 days, mU/mL diet: SEQ 182 3.7, SEQ 185 0.6, water 1", "result": 2}, {"measurement": "Early Pupa", "setting": "[3]; n = 32, doses as E97, water 0", "result": 4}, {"measurement": "Larva Stage I", "setting": "[3]; n = 32, doses as E97, water 0", "result": 2}, {"measurement": "Larva Stage II", "setting": "[3]; n = 32, doses as E97, water 0", "result": 1}, {"measurement": "Adult", "setting": "[3]; n = 32, doses as E97, water 7", "result": 1}, {"measurement": "Late Pupa", "setting": "[3]; n = 32, doses as E97, water 24", "result": 22}, {"measurement": "% Comparison to Control", "setting": "[2]; Table 11", "result": 68, "unit": "%"}, {"measurement": "Average cysts per g of root tissue", "setting": "[2]; [5]", "result": "48.8 cysts per g of root tissue"}, {"measurement": "% Comparison to Control", "setting": "[2]; Table 12", "result": 79, "unit": "%"}, {"measurement": "Average cysts per g of root tissue", "setting": "[2]; Table 12, seed treatment 2 fl oz/unit, ILEVO 0.15 mg AI/seed, base control 376.9", "result": "296.9 cysts per g of root tissue"}, {"measurement": "Difference in Percent Death of Nematodes for 0 to 22 Hours", "setting": "Steinernema feltiae; Table 24, water control 7%", "result": 17, "unit": "%"}, {"measurement": "Average percentage of dead nematodes at 0 hours", "setting": "SCN nematodes; water only 4%", "result": 3, "unit": "%"}, {"measurement": "Average percentage of dead nematodes at 24 hours", "setting": "SCN nematodes; water only 5%", "result": 12, "unit": "%"}]}
